Test results published in paper PMC6042327 (BMC Biology, 2018).
Residue numbers refer to the chain shown, from its start. Names and notes keep the numbering of the source.

B1: SGTA NT-TPR S88C single-cysteine mutant, MTSL spin-labelled (domain or fragment, human, UniProt O43765 1-213, looked up)
chain: MDNKKRLAYAIIQFLHDQLRHGGLSSDAQESLEVAIQSLETAFGVTVEDSDLALPQTLPEIFEAAATGKEMPQDLRSPARTPPSEEDCAEAERLKTEGNEQMKVENFEAAVHFYGKAIELNPANAVYFSNRAAAYSKLGNYAGAVQDSERAISIDPAYSKAYGRMGLALSSLNKHVEAVAYYKKALELDPDNETYKSNLKIAELKLREAPSPT
modifications: MTSL spin label on cysteine 88
notes: SGTA, human, residues 1-213; all four wild-type cysteines changed to serine, then S88C; also called C-terminal deletion mutant S88C; source: E. coli, prepared in the same way as the wild-type versions, MTSL spin-labelled, size-exclusion chromatography; not shown: thioredoxin A, N-terminal, cleaved; His6, N-terminal, cleaved
B2: SGTA NT-TPR S136C single-cysteine mutant, MTSL spin-labelled (domain or fragment, human, UniProt O43765 1-213, looked up)
chain: B1 chain with C88S, S136C
modifications: MTSL spin label on cysteine 136
notes: SGTA, human, residues 1-213; all four wild-type cysteines changed to serine, then S136C; also called C-terminal deletion mutant S136C; source: E. coli, prepared in the same way as the wild-type versions, MTSL spin-labelled, size-exclusion chromatography; not shown: thioredoxin A, N-terminal, cleaved; His6, N-terminal, cleaved
B3: SGTA NT-TPR S197C single-cysteine mutant, MTSL spin-labelled (domain or fragment, human, UniProt O43765 1-213, looked up)
chain: B1 chain with C88S, S197C
modifications: MTSL spin label on cysteine 197
notes: SGTA, human, residues 1-213; all four wild-type cysteines changed to serine, then S197C; also called C-terminal deletion mutant S197C; source: E. coli, prepared in the same way as the wild-type versions, MTSL spin-labelled, size-exclusion chromatography; not shown: thioredoxin A, N-terminal, cleaved; His6, N-terminal, cleaved
B4: SGTA NT-TPR C153 single-cysteine variant, MTSL spin-labelled (domain or fragment, human, UniProt O43765 1-213, looked up)
chain: B1 chain with C88S, S153C
modifications: MTSL spin label on cysteine 153
notes: SGTA, human, residues 1-213; the other three wild-type cysteines changed to serine, wild-type C153 kept; also called C-terminal deletion mutant C153; source: E. coli, prepared in the same way as the wild-type versions, MTSL spin-labelled, size-exclusion chromatography; not shown: thioredoxin A, N-terminal, cleaved; His6, N-terminal, cleaved
B5: FL SGTA C153 single-cysteine variant, MTSL spin-labelled (natural protein, human, UniProt O43765 1-313, looked up)
chain: MDNKKRLAYAIIQFLHDQLRHGGLSSDAQESLEVAIQSLETAFGVTVEDSDLALPQTLPEIFEAAATGKEMPQDLRSPARTPPSEEDSAEAERLKTEGNEQMKVENFEAAVHFYGKAIELNPANAVYFSNRAAAYSKLGNYAGAVQDSERAICIDPAYSKAYGRMGLALSSLNKHVEAVAYYKKALELDPDNETYKSNLKIAELKLREAPSPTGGVGSFDIAGLLNNPGFMSMASNLMNNPQIQQLMSGMISGGNNPLGTPGTSPSQNDLASLIQAGQQFAQQMQQQNPELIEQLRSQIRSRTPSASNDDQQE
modifications: MTSL spin label on cysteine 153
notes: SGTA, human, residues 1-313; the other three wild-type cysteines changed to serine, wild-type C153 kept; source: E. coli, prepared in the same way as the wild-type versions, MTSL spin-labelled, size-exclusion chromatography; not shown: thioredoxin A, N-terminal, cleaved; His6, N-terminal, cleaved
B6: FL SGTA S197C single-cysteine mutant, MTSL spin-labelled (natural protein, human, UniProt O43765 1-313, looked up)
chain: B5 chain with C153S, S197C
modifications: MTSL spin label on cysteine 197
notes: SGTA, human, residues 1-313; all four wild-type cysteines changed to serine, then S197C; source: E. coli, prepared in the same way as the wild-type versions, MTSL spin-labelled, size-exclusion chromatography; not shown: thioredoxin A, N-terminal, cleaved; His6, N-terminal, cleaved
B7: FL SGTA S136C single-cysteine mutant, MTSL spin-labelled (natural protein, human, UniProt O43765 1-313, looked up)
chain: B5 chain with S136C, C153S
modifications: MTSL spin label on cysteine 136
notes: SGTA, human, residues 1-313; all four wild-type cysteines changed to serine, then S136C; source: E. coli, prepared in the same way as the wild-type versions, MTSL spin-labelled, size-exclusion chromatography; not shown: thioredoxin A, N-terminal, cleaved; His6, N-terminal, cleaved
B8: FL SGTA S88C single-cysteine mutant, MTSL spin-labelled (natural protein, human, UniProt O43765 1-313, looked up)
chain: B5 chain with S88C, C153S
modifications: MTSL spin label on cysteine 88
notes: SGTA, human, residues 1-313; all four wild-type cysteines changed to serine, then S88C; source: E. coli, prepared in the same way as the wild-type versions, MTSL spin-labelled, size-exclusion chromatography; not shown: thioredoxin A, N-terminal, cleaved; His6, N-terminal, cleaved
B9: SGTA NT-TPR (1-213) (domain or fragment, human, UniProt O43765 1-213, looked up)
chain: B1 chain with S38C, C88S, S129C, S148C, S153C
notes: SGTA, human, residues 1-213 (N-terminal dimerisation domain and TPR domain); also called version lacking the C-terminal domain; not shown: thioredoxin A, N-terminal, cleaved; His6, N-terminal, cleaved
B10: SGTA C-terminal domain (CT; residues 213-313) (domain or fragment, human, UniProt O43765 213-313, looked up)
chain: TGGVGSFDIAGLLNNPGFMSMASNLMNNPQIQQLMSGMISGGNNPLGTPGTSPSQNDLASLIQAGQQFAQQMQQQNPELIEQLRSQIRSRTPSASNDDQQE
notes: small glutamine-rich tetratricopeptide repeat-containing protein alpha (SGTA), human, residues 213-313 (complete C-terminal domain); also called C-terminal domain of SGTA; not shown: thioredoxin A, N-terminal, cleaved; His6, N-terminal, cleaved

Molecular target: the molecule itself
Assay: DEER (EPR) spectroscopy; MTSL spin label on a single cysteine; distances between homologous sites in each monomer; 300-500 uM, D2O buffer with 50% d8-glycerol, flash frozen, measured at 50 K

Binding result, binds:
B1
B2
B3
B4
B5
B6
B7
B8

Molecular target: the molecule itself
Assay: native MS; protein 5-10 uM in 0.20-0.75 M ammonium acetate pH 7.0, electrosprayed, source temperature 20 °C; self-association (monomer to dimer)

Stoichiometry N, 2:
B9
B10
